{"source": "paper PMC3589492", "about": "“Intersubunit Ionic Interactions Stabilize the Nucleoside Diphosphate Kinase of Mycobacterium tuberculosis” (PLoS ONE, 2013)", "target": "the molecule itself", "assay": "SEC; Superose 12 column, 50 mM Hepes pH 7.4, 150 mM sodium chloride, 0.4 mL/min, calibrated with molecular weight markers"}
{"protein": "D93N mutant of the nucleoside diphosphate kinase of Mycobacterium tuberculosis (enzyme, No tag is mentioned; also called D93N Mt-NDPK) MTERTLVLIKPDGIERQLIGEIISRIERKGLTIAALQLRTVSAELASQHYAEHEGKPFFGSLLEFITSGPVVAAIVEGTRAIAAVRQLAGGTNPVQAAAPGTIRGDFALETQFNLVHGSDSAESAQREIALWFPGA", "values": [{"measurement": "stoichiometry N", "value": 6}]}
